Residue numbers refer to the chain shown, from its start.
B1: UC antibody 3 (antibody, V domains shown)
VH: QVQLVESGGGVVQPGRSLRVSCAASGFTFSIYGMHWVRQAPGKGLEWVAVISSDGTNQYYADSVKGRFTISRDNSNNTVYLQMNSLGGEDTAVYYCAKDRGRRGDSGWYRHFDYWGQGTLVTVSS
VL: QSVLTQPPSVSAAPGQKVTISCSGSSSNNGNNYVSWYQQVPGTAPKLLIYDNNKRPSGIPDRFSGSKSGTSATLGITGLQTGDEADYYCGTWDSSLSAVVFGGGTKLTVL
notes: Human monoclonal IgG from a UC patient, expressed in CHO cells
B2: UC antibody 5 (antibody, V domains shown)
VH: QVQLVQSGAEVKKPGASVKVSCKASGHTFSSFGISWVRQAPGQGLEWMGWISAYNGNTNSAQKFQGRVTMTTDTSTSTAYMELRSLRSDDTAVYYCARDRGFRGDTAMIKGGMDVWGQGTTVTVSS
VL: VLTQPPSVSVSPGQTASITCSGDKLGDKYACWYQQKSGQAPVLVIYQDSKRPSGIPERFSGSNSGNTATLTISGTQAMDEADYYCQAWDSSTALVFGGGTKLTVL
notes: as for B1
B3: PSC antibody 1 (antibody, V domains shown)
VH: B2 VH
VL: QSALTQPASVSGSPGQSITISCTGTSSDVGGYNYVSWYQQHPGKAPQLIIYDVSKRPSGVSNRFSGSRSGNTASLTISGLQAEDEADYYCSSYTSSSTYVFGTGTKVTVL
notes: Human monoclonal IgG from a PSC patient, expressed in CHO cells
B4: UC antibody 4 (antibody, V domains shown)
VH: B2 VH with H27Y
VL: SYELTQPPSVSVSPGQTARITCSGDALPKQYAYWYQQKPGQAPVLVIYKDSERPSGIPERFSGSSSGTMATLTISGAQVEDEGDYYCSSTDSNSQRVFGGGTKLTVL
notes: as for B1
B5: UC antibody 6 (antibody, V domains shown)
VH: B2 VH
VL: QSVLTQPPSVSGAPGQRVTISCTGSSSTIGANNDVHWYQQLPGTAPKLLIYGNKNRPSGVSDRFSGSKSGTSASLAITGLQAEDEADYYCQSYDSSLSDLYVFGTGTKVTVL
notes: as for B1
B6: UC antibody 7 (antibody, V domains shown)
VH: VQLVESGGGVVQPGRSLRLSCAASGFTFSSYGMHWVRQAPGKGLEWVAFISYDGINKYYADSVKGRFTISRDNSKDTLYLQMNSLRAEDTAVYYCAKVIPRIRGSGDKAGIKDYYYYGMDVWGQGTTVTVSS
VL: EIVLTQSPATLSLSPGERATLSCRASQSVSSYLAWYQQKPGQAPRLLIYDASNRATGIPARFSGSGSGTDFTLTISSLEPEDFAVYYCQQRSNWLTFGGGTKVEIK
notes: as for B1
B7: UC antibody 2 (antibody, V domains shown)
VH: EVQLVESGGGLVKPGGSLRVSCVVSGFTITNAWMSWVRQAPGKGLEWVGRSKSKTDGGTTDYIAPVKGRFTISRDDSKNTLYLEMNSLKTEDTAVYYCATDRPLKLRGRDYNYYVMDVWGQGTTVTVSS
VL: DIQMTQSPSSLSASVGDRVTITCRASQSIARSLNWYQQKPGKAPNLLIYAASTLQSGVPSRFSGSGSGTDFTLTIGSLQPEDFATYSCQQSSSSPLTFGGGTRVEIK
notes: as for B1
B8: UC antibody 1 (antibody, V domains shown)
VH: QVQLVESGGGVVQPGRSLRLSCAASGFTFSSYGMHWVRQAPGKGLEWVAFISYDGINKYYADSVKGRFTISRDNSKDTLYLQMNSLRAEDTAVYYCAKVIPRIRGSGDKAGIKDYYYYGMDVWGQGTTVTVSS
VL: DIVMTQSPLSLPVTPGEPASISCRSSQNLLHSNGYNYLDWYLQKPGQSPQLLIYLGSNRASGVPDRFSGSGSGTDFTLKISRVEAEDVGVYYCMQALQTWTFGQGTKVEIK
notes: Human monoclonal IgG from a UC patient, expressed in CHO cells; also called monoclonal autoantibody derived from an ulcerative colitis patient; anti-integrin αvβ6 antibody (UC antibody 1)
B9: UC antibody 8 (antibody, V domains shown)
VH: B8 VH with G33A, S75P, Q125R
VL: not shown
notes: as for B1
B10: UC antibody 9 (antibody, V domains shown)
VH: B8 VH
VL: B1 VL with N29I, V40L
notes: as for B1

Legend:
[1] = biological target: T1, Biotinylated human integrin αvβ6 (ACROBiosystems, product number IT6-H82E4) (human, UniProt P06756 31-992; P18564 22-707, biotinylated (Avi tag at the C-terminus) ; Biotin on the Avi tag at the C-terminus of the αv chain; the tag is not in the letters.); assay: BLI (Octet RED96), biotinylated integrin αvβ6 on biosensor, antibody in solution
T1 construct: Bought heterodimer; also called biotinylated integrin αvβ6; not shown: basic tail on the β6 chain
T1 sequence (P06756 31-992 limits assumed, chain 1 of 2): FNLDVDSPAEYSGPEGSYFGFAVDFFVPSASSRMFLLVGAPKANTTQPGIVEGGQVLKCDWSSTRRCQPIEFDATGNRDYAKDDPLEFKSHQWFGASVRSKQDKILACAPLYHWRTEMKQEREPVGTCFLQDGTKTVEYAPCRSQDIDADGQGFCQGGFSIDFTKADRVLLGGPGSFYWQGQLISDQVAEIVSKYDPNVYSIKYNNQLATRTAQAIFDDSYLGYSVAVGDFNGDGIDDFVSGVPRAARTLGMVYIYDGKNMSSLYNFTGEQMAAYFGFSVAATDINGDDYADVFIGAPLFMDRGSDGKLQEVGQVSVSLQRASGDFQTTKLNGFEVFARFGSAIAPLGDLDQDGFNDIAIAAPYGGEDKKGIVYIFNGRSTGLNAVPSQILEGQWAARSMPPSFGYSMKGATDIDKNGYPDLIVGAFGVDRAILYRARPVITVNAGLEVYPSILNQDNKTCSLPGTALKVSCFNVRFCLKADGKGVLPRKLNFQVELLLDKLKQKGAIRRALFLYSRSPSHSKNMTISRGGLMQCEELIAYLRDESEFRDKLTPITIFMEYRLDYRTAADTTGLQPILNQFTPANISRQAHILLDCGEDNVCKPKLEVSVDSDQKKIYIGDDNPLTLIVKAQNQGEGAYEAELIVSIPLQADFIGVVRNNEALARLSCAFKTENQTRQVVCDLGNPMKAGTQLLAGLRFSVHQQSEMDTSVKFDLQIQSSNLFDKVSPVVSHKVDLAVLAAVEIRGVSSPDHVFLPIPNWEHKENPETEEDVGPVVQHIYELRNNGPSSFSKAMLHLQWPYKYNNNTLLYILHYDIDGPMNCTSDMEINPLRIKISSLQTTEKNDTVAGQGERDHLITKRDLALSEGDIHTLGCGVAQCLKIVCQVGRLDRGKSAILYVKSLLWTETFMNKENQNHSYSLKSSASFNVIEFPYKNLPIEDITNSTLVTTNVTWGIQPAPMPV
T1 sequence (P18564 22-707 limits assumed, chain 2 of 2): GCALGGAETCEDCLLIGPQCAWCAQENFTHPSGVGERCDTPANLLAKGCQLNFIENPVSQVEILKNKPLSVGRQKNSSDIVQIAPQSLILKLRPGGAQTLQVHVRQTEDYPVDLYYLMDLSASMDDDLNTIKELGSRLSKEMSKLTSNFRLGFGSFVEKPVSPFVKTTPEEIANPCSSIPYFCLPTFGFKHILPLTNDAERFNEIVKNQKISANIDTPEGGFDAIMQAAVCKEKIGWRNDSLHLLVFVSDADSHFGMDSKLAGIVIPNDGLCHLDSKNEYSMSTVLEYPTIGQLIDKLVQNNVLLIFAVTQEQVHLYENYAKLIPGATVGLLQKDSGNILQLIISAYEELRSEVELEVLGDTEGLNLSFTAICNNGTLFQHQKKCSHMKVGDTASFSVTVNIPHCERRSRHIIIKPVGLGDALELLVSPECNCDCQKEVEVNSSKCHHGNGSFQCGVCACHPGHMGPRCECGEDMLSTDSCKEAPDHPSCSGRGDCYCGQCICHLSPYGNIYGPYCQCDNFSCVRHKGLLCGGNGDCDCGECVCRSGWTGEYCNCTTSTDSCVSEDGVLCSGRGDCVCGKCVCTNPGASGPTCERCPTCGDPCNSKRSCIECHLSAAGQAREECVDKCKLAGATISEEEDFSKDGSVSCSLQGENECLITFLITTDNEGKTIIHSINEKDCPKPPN
Description: Next, the binding affinity of the obtained anti-integrin αvβ6 monoclonal antibodies derived from UC or PSC patients was determined. The KD value was measured by biolayer interferometry using Octet RED96 (Sartorius). A 100 nM solution of the antibody, and serially diluted solutions of biotinylated integrin αvβ6 protein in the range of 200 to 6.25 nM were prepared using a buffer containing 20 mM Tris, 150 mM NaCl, 1 mM CaCl₂, 1 mM MgCl₂, 0.1% human serum albumin (014-27604; Fujifilm Wako Pure Chemical Industries, Ltd.) and 0.02% Tween 20 (1610781; Bio-Rad), and added to a 96-well plate (Greiner; 655209) at 200 μL/well. The biotinylated integrin αvβ6 was allowed to bind for 5 minutes to a biosensor (18-5136; Sartorius) soaked in the buffer. After washing of the biosensor, the biosensor was immersed in each antibody solution for 5 minutes (binding reaction). Then, the sensor was immersed in the buffer solution for 1 minute (dissociation reaction). The binding dissociation constant (KD value) between “integrin αvβ6-each monoclonal antibody” was determined using the analysis software (Octet BLI Analysis) attached to the device.

[2] = biological target: T2, human integrin αvβ6 (ACROBiosystems, product number IT6-H52E1) (human, UniProt P06756 31-992; P18564 22-707); assay: blocking ELISA: integrin αvβ6 coated, antibody added, then fibronectin 2 µg/mL; bound fibronectin detected, inhibition effect (%)
T2 construct: also called histidine-tagged integrin αvβ6; histidine-tagged extracellular domain protein of integrin αvβ6; not shown: linker and basic tail on the β6 chain
T2 sequence (P06756 31-992 limits assumed, chain 1 of 2): as the sequence (P06756 31-992 limits assumed, chain 1 of 2) above
T2 sequence (P18564 22-707 limits assumed, chain 2 of 2): as the sequence (P18564 22-707 limits assumed, chain 2 of 2) above
Description: Furthermore, a competitive assay with fibronectin for binding to integrin αvβ6 was performed to confirm the function of the obtained monoclonal antibodies. Briefly, a 96-well microtiter plate was coated with 150 μL/well of 2 μg/mL human integrin αvβ6 (ACROBiosystems, Cat. No. IT6-H52E1) overnight at 4° C., then blocked and incubated with 120 μL of monoclonal antibodies (0.0001-10 μg/mL) for 60 min at room temperature. After washing, the plate was incubated with 100 μL of 2 μg/mL fibronectin (FC010; MilliporeSigma, Burlington, MA) for 60 minutes at room temperature. After washing, an anti-fibronectin antibody (1:5000 dilution; ab2413; Abcam) was added to the plate, and the plate was incubated for 60 min at room temperature. […] After washing, the plate was incubated with 3,3′,5,5′-tetramethylbenzidine for 10 minutes, and the absorbance at 450 nm was measured to detect fibronectin bound to integrin αvβ6 on the solid phase. […] To calculate the binding inhibition rate, blank wells coated with integrin αvβ6 were incubated with fibronectin in the absence of antibody, and the optical density (OD) at 450 nm was measured in the same manner as above. The binding inhibition rate (%) was calculated according to the following formula. […]

[3] = biological target: Integrin αvβ1 (ACRO Biosystems, IT1-H82W6) (UniProt P06756 31-992; P05556 21-728); assay: adsorption test: UC antibody 1 150 ng, His-tagged integrin 5 or 25 µg/mL and anti-His-tag magnetic agarose; remaining antibody measured by ELISA, adsorption rate
Sequence of Integrin αvβ1 (ACRO Biosystems, IT1-H82W6) (P06756 31-992, chain 1 of 2): as the sequence (P06756 31-992 limits assumed, chain 1 of 2) above
Sequence of Integrin αvβ1 (ACRO Biosystems, IT1-H82W6) (P05556 21-728, chain 2 of 2): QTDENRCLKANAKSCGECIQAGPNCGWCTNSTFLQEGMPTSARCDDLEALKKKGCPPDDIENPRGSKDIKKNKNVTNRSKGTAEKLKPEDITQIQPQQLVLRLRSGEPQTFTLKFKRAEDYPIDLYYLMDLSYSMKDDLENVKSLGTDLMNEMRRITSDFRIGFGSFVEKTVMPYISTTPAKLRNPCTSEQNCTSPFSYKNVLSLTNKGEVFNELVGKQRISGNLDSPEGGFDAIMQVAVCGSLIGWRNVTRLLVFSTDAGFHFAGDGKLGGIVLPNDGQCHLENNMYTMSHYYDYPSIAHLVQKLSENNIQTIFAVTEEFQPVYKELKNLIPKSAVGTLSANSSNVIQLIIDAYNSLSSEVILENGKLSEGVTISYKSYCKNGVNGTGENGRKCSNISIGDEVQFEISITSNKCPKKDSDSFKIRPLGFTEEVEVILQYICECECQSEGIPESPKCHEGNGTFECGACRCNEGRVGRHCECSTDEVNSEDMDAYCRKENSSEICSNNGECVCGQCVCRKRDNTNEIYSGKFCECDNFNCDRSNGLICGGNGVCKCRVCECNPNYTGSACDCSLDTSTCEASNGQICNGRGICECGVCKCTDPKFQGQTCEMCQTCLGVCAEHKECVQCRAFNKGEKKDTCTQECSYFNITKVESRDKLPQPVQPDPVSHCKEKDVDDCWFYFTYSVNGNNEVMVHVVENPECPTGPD
Description: (§1) The concentration of anti-integrin αvβ6 antibodies contained in the recovered solution was measured by ELISA. A microtiter plate was coated with 100 μL/well of 2 μg/mL integrin αvβ6 overnight at 4° C., followed by washing and blocking. After washing, the recovered reaction solution was diluted 10-fold and added at 100 µL/well to the plate, and the plate was incubated at room temperature for 60 minutes. After washing, an HRP-labeled anti-human IgG antibody (50,000-fold dilution; ab6759; Abcam) was added at 100 μL/well to the plate, and the plate was incubated at room temperature for 60 minutes. After washing, the plate was incubated with 3,3′,5,5′-tetramethylbenzidine for 7 minutes, and the absorbance density (OD value) at 450 nm was measured to detect human IgG bound to integrin αvβ6 on the solid phase.
(§2) Anti-histidine tag antibody-labeled magnetic agarose (MBL, D291-10) in the amount of 10 μL (5 μg of anti-his tag antibody), 150 ng of the monoclonal autoantibody derived from an ulcerative colitis patient prepared in Example 2 (UC antibody 1 shown in Table 1), and 5 μg/mL or 25 μg/mL of any of integrins as mentioned below were mixed and reacted by inversion mixing in a total of 500 μL of solution at 4° C. for 12 hours. The solution after the reaction was recovered. As a control, a mixture to which no integrin was added (a mixture of the above-mentioned agarose and autoantibody only) was used to perform the similar reaction. [0157] Integrin αvβ1 (ACRO Biosystems, IT1-H82W6) [0158] Integrin αvβ3 (ACRO Biosystems, IT3-H52E3) [0159] Integrin αvβ5 (ACRO Biosystems, IT5-H52W5) [0160] Integrin αvβ6 (ACRO Biosystems, IT6-H52E1) [0161] Integrin αvβ8 (ACRO Biosystems, IT8-H52W4)
(§3) In the same manner as described in Example 7, the concentration of anti-integrin αvβ6 antibody contained in the recovered solution was determined, and the adsorption rate of anti-integrin αvβ6 antibody in the antibody adsorption reaction was calculated.

[4] = biological target: Integrin αvβ3 (ACRO Biosystems, IT3-H52E3) (UniProt P06756 31-992; P05106 27-718); assay: as above
Description: as §1, §2, §3

[5] = biological target: Integrin αvβ5 (ACRO Biosystems, IT5-H52W5) (UniProt P06756 31-992; P18084 24-719); assay: as above
Description: as §1, §2, §3

[6] = biological target: Integrin αvβ8 (ACRO Biosystems, IT8-H52W4) (UniProt P06756 31-992; P26012 43-684); assay: as above
Description: as §1, §2, §3

[7] = biological target: T2, human integrin αvβ6 (ACROBiosystems, …); assay: competition ELISA: integrin αvβ6 coated, peptide RGDS 0-100 µg/mL added together with PSC patient IgG 1:100 (competitor); bound human IgG detected (A450)
Description: A microtiter plate was coated with 100 μL/well of 2 μg/mL integrin αvβ6 overnight at 4° C., and then blocked. Peptide RGDS (SEQ ID NO: 9: Arg-Gly-Asp-Ser) or RGES (SEQ ID NO: 10: Arg-Gly-Glu-Ser) as RGD motif or RGE motif (control) was added together with 100 μL of patient-derived IgG dilution (1:100) to the plate, and the plate was incubated at room temperature for 60 minutes. After washing, 100 μl/well of an HRP-labeled anti-human IgG antibody (50,000-fold dilution; ab6759; Abcam) was added to the plate and the plate was incubated at room temperature for 60 minutes. After washing, the plate was incubated with 3,3′,5,5′-tetramethylbenzidine for 7 minutes, and an absorbance density (OD value) at 450 nm was measured to detect human IgG bound to integrin αvβ6 on the solid phase.

| Binder | Kd [1] | also measured |
| --- | --- | --- |
| B1 | 15 nM | – |
| B2 | 8.25 nM | – |
| B3 | 8.91 nM | – |
| B4 | 3.15 nM | – |
| B5 | 20.8 nM | – |
| B6 | 5.18 nM | – |
| B7 | 1.95 nM | – |
| B8 | 4.54 nM | IC50 (read off the curve) [2]: ~0.2 µg/mL; binding result [3]: no binding (tested: 25 µg/mL); binding result [4]: no binding (tested: 25 µg/mL); binding result [5]: no binding (tested: 25 µg/mL); binding result [6]: no binding (tested: 25 µg/mL) |
| B9 | 10.6 nM | – |
| B10 | 5.96 nM | – |
| RGDS (also called RGD peptide; RGD motif) [Peptide RGDS] | – | binding result [7]: binds |
